According to the supplement of paper PMC9170038:

Tested on: MS2 coat protein
Assay: apparent KD of MS2 coat protein; designed switch direction (-1 OFF switch, 1 ON switch): -1; higher = weaker reporter binding
Summary of the method: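 The buffer was Tris-HCl pH 7.5 with KCl, MgCl2, BSA, DTT, tRNA and Tween-20. In it, SNAP-549-labelled MS2 coat protein was titrated in doubling steps from 0.7 or 1.5 nM to 3 µM over chip-bound RNA switches transcribed by stalled E. coli RNA polymerase on Illumina chips. Apparent KD is the per-design median over clusters of curve fits to normalised fluorescence.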

[1] = Eterna round: R95, input ligand: FMN 200 uM
[2] = Eterna round: R95, input ligand: microRNA oligo, concentration not stated
[3] = Eterna round: R95, input ligand: none
[4] = input ligand: microRNA oligo, concentration not stated

Sequence | apparent KD of MS2 coat protein [1] [nM] | apparent KD of MS2 coat protein [2] [nM] | apparent KD of MS2 coat protein [3] [nM] | apparent KD of MS2 coat protein (input ligand: FMN 200 uM) [nM] | apparent KD of MS2 coat protein (input ligand: none) [nM] | apparent KD of MS2 coat protein [4] [nM]
AAAUAAUAGAUAAAAUAAAACAUGAGGAUCACCCAUGUGGGAUGUUGAGGGUGAUACAAGCUUUUUGCUCGUCUUAU (puzzle: Sensor v3, turn-off variant 1) | 233 | 45.6 | 271 | – | – | –
AAAUAGAAUGAGGAUAUCGUAUUGUAUUUAGUGCGAGAAGGCAUUACAUGAGGAUCACCCAUGUUUUGUUGGGA [JR_Ex6_Sub003] (Eterna round: R97, puzzle: Exclusion 6) | – | – | – | 89.1 | 32.3 | –
AAAUAGCGAGGAUAUACUCCAAUAGCAAAUAUUCCCAUGGCACAUGAGGAUCACCCAUGUAGAAGGCGCAGUAA (Eterna round: R97, puzzle: Exclusion 2) | – | – | – | 54.2 | 44.4 | –
AAAUCUGCUGAGGAUAUGAUGACUGAGAGGUCAUCAGAAGGCGGUACAUGAGGAUCACCCAUGUCUAUGGGCAA [Ex-6 Malc#30] (puzzle: Exclusion 6) | – | 243 | – | – | – | –
AAAUGUUCGGAGGAUAUAGAACGAUUGUCCGAGCUAGAAGGCCGAACAUGAGGAUCACCCAUGUGUACCUUAAA [Tibiares] (puzzle: Exclusion 6) | 306 | 40.1 | 53.7 | – | – | –
AAAUGUUGUAAGGAUAUUGAAUAAGAAAACUUACGAGAAGGUGCGACAUGAGGAUCACCCAUGUUCCCAAAGGG [Alacar 2] (Eterna round: R97, puzzle: Exclusion 6) | – | – | – | 31.5 | 30.4 | –
AAAUUCAGAGGAUAUGCGCAUAGAUAAGACUUUGUUUCUUAACAUGAGGAUCACCCAUGUAGAAGGCUGUACAA [Ex2 #68] (Eterna round: R97, puzzle: Exclusion 2) | – | – | – | 16.1 | 13.4 | –
AAAUUGCUAGAGGAUAUCGGAUAGGAUUUAUUACGAGAAGGUUAGACAUGAGGAUCACCCAUGUUCUGUUGGGA [EX6 #24] (Eterna round: R97, puzzle: Exclusion 6) | – | – | – | 89.5 | 36.9 | –
AAAUUGUGAGGAUAUCCAAUAUAUGACAUGAGGAUCACCCAUGUUUCCACUCGUACCUCCGGAGAAGGCACUGCAA [Ex5 #39] (Eterna round: R97, puzzle: Exclusion 5) | – | – | – | 22.3 | 27.2 | –
AACACGGGAGGAUAUGCGACAGGAAACAUGAGGAUCACCCAUGUGGAUGGUCGUACAAACGUAGAAGGCCCGCCCA [Eternabot (Original) Solution 1] (Eterna round: R97, puzzle: Exclusion 5) | – | – | – | 12.9 | 15.3 | –
AACAGUCUAGAGGAUAUGUGGGAUUAAUAUCUUGCAGAAGGCUGGACAUGAGGAUCACCCAUGUAAAUACUACC [Omei Ex6 A15] (Eterna round: R97, puzzle: Exclusion 6) | – | – | – | 80.8 | 32.9 | –
AACCCGAUAGGAUAUACUUGAGGAUCACCCAAGUACGCCUGCAAUGCAAGCGCCUGAAGUAGAAGGAUCAAAAG [Gexetele] (Eterna round: R97, puzzle: Exclusion 3) | – | – | – | 21 | 31.1 | –
AACCUACAUGAGGAUCACCCAUGUGAGGAUAUAUUGUUAUUUAUAAUAUUUUUUAGUGGUAGAAGGCGCGUGAU [JR_Exc1_Sub019] (Eterna round: R97, puzzle: Exclusion 1) | – | – | – | 21 | 18.5 | –
AACCUGAGGCUUUGCUUUAGGUUUACAUGAGGAUCACCCAUGUAGGAUAUGGUAGGCUUUGCUUACCAGAAGGACAUGAUAAUU [Mat - Exclusion NG 3 - Mod of JL - D27] (Eterna round: R96, puzzle: Exclusion NG 3) | – | – | – | 215 | 43.8 | 33
AACGAGGCAGGAUAUACAUGAGGAUCACCCAUGUGCUUGCAUGGCGUGGGAAGUCAUCGUAGAAGGGCUAUGCC [EX3 #64] (Eterna round: R97, puzzle: Exclusion 3) | – | – | – | 210 | 283 | –
AACGUGUAAGGAUAUCUGCUUAUGCUCGGCAAUGCACCGAUAGAGAAGGUACAUGAGGAUCACCCAUGUUCCAA [EX4 A.16] (Eterna round: R97, puzzle: Exclusion 4) | – | – | – | 16.7 | 15.8 | –
AACGUGUAAGGAUAUGCUGCUCGUCACGAAAGUGAUGAGUAGCAGAAGGUACAUGAGGAUCACCCAUGUAAAGA [Exclusion 4.1f (Exclusion4-cac2 - changed GC at 6/50 to AU )] (Eterna round: R96, puzzle: Exclusion 4) | – | – | – | 91.6 | 22.2 | 19
AACUCGUUAGGAUAUACCGCCAACGAUACCUCGUGAAACAUACAUGAGGAUCACCCAUGUAGAAGGAGCGAGCA [Vearbe] (puzzle: Exclusion 2) | – | 15.7 | – | – | – | –
AACUGACAUGAGGAUCACCCAUGUCAGGAUAUGCUUCAUAAAAACAAACAAAAAUGAUGCAGAAGGGACAUGGA [Design 30 :P Sub-opt 6] (Eterna round: R96, puzzle: Exclusion 1) | – | – | – | – | – | 14.3
AAGAAACAUGAGGAUCACCCAUGUCAGGAUAUCUCGAAAAGCAUAGAAAUAUGCGAAGAGAGAAGGGACUAUCC [ChP Ext 10-04-2015 #3] (puzzle: Exclusion 1) | 22.7 | 23.7 | 31.6 | – | – | –
AAGAAACAUGAGGAUCACCCAUGUGAGGAUAUGAAAAAGAAAAGAAAAGAAAGAAGACUCAGAAGGCACAAAGG [salish99-ex1_r3_022] (puzzle: Exclusion 1) | 33.3 | 48.5 | 45.7 | – | – | –
AAGAAACAUGAGGAUCACCCAUGUGAGGAUAUGAAAAAGAAAAGAAAAGAAAGAAGCAUCAGAAGGCACAAAGG [salish99-ex1_r3_026] (puzzle: Exclusion 1) | 36.1 | 32.1 | 31.1 | – | – | –
AAGAAACAUGAGGAUCACCCAUGUGAGGAUAUGAAAAAGAAAAGAAAAGAAAGAAGCUUCAGAAGGCACAAAGG [salish99-ex1_r3_030] (puzzle: Exclusion 1) | 38 | 27.5 | 39.4 | – | – | –
AAGAAACAUGAGGAUCACCCAUGUGAGGAUAUGUAAAAUAAAAGAAAAUAAAGAAUAAACAGAAGGCACAAAGG [Mat - Mod of Hog D23] (puzzle: Exclusion 1) | 48 | 46.5 | 43.5 | – | – | –
